Among the data in paper PMC9482650, “Quantitative fragmentomics allow affinity mapping of interactomes” (Nature Communications, 2022) are pKd values, retold here.

Among the targets are LAP2, Q96RT1; Inadl_6, Q8NI35; FRMPD2_3, Q68DX3; GRID2IP_2, A4D2P6; SNX27, Q96L92; PICK1, Q9NRD5; MAGI1_2, Q96QZ7; FRMPD2_2, Q68DX3; LNX1_2, Q8TBB1; GRASP, Q7Z6J2.
What all share (assay): holdup assay
Design in all cases: key: below the threshold = too weak to quantify, mostly under pKd 3.1 to 4
Holding throughout (conditions): plain residues with an end cap or a label only (N-terminal biotin on a linker: ado-ado)

The target in the next experiment is T1, ARHGEF11, O15085.
T1 sequence (O15085 42-136, limits assumed, looked up): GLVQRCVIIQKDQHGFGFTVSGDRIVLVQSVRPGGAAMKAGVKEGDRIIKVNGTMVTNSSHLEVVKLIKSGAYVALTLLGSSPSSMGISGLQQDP

The next experiment deals with T2, MPDZ_10, O75970.
T2 sequence (O75970 1624-1722, limits assumed, looked up): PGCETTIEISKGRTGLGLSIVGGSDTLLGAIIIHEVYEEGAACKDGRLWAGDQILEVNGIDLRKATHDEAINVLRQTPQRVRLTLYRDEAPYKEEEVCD

The next experiment deals with T3, LIN7C, Q9NUP9.
T3 sequence (Q9NUP9 88-185, limits assumed, looked up): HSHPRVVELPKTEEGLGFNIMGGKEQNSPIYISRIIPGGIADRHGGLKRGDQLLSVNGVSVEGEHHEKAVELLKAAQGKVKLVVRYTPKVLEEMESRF

In another experiment the target is T4, MPDZ_5, O75970.
T4 sequence (O75970 695-796, limits assumed, looked up): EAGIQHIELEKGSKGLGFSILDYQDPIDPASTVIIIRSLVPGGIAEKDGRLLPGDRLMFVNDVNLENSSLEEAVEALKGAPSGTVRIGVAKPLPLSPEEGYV

For a further experiment, the target named is T5, TX1BP3, O14907.
T5 sequence (O14907 10-122, limits assumed, looked up): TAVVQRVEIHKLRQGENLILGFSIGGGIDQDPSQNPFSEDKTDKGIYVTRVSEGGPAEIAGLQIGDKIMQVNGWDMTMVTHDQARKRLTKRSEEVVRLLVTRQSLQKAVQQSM

The target in a further experiment is T6, GRIP1_4, Q9Y3R0.
T6 sequence (Q9Y3R0 467-571, limits assumed, looked up): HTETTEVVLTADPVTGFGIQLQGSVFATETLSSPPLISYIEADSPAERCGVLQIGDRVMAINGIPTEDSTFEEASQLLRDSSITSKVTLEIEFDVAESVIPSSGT

The target of another experiment is T7, SNTB1, Q13884.
T7 sequence (Q13884 107-205, limits assumed, looked up): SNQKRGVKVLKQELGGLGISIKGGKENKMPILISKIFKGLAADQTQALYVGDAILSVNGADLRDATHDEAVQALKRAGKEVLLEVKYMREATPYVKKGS

Another experiment concerns the target T8, LIN7B, Q9HAP6.
T8 sequence (Q9HAP6 88-185, limits assumed, looked up): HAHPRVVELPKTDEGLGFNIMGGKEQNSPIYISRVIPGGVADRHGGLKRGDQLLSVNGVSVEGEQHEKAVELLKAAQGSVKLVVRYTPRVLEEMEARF

For a further experiment, the target named is T9, PDZD2_2, O15018.
T9 sequence (O15018 329-429, limits assumed, looked up): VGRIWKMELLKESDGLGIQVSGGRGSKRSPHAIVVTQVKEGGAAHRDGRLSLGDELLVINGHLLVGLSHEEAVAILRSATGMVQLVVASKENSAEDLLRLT

The target of another experiment is T10, APBA1_1, Q02410.
T10 sequence (Q02410 651-752, limits assumed, looked up): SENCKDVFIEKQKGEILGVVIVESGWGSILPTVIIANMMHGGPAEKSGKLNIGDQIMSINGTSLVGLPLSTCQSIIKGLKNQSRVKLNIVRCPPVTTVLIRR

For a further experiment, the target named is T11, DVL3, Q92997.
T11 sequence (Q92997 244-331, limits assumed, looked up): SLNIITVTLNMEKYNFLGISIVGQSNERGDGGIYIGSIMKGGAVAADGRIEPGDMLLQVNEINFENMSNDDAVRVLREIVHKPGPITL

The target of a further experiment is T12, TIAM2, Q8IVF5.
T12 sequence (Q8IVF5 885-986, limits assumed, looked up): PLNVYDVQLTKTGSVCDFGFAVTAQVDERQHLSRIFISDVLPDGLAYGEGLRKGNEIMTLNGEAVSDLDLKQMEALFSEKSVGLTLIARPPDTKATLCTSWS

The next experiment has as its target T13, DLG3_2, Q92796.
T13 sequence (Q92796 221-321, limits assumed, looked up): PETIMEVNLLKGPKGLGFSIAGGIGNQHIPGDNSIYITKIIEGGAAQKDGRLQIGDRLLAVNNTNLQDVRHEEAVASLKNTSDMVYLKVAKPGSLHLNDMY

MAGI1_2, Q96QZ7, sequence (Q96QZ7 456-580): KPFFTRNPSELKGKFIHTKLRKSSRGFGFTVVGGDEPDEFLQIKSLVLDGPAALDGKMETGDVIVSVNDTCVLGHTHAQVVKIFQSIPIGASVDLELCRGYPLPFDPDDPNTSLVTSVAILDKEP
PICK1, Q9NRD5, sequence (Q9NRD5 17-115): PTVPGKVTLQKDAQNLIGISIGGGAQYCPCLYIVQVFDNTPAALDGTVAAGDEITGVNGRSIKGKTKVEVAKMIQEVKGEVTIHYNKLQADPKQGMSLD
FRMPD2_2, Q68DX3, sequence (Q68DX3 944-1038): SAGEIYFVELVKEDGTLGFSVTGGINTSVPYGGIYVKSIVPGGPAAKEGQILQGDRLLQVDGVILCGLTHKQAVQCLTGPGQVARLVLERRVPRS
LNX1_2, Q8TBB1, sequence (Q8TBB1 371-470): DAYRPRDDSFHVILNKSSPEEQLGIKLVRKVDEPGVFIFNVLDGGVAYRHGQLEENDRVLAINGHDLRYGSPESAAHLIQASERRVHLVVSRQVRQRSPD
LAP2, Q96RT1, sequence (Q96RT1 other isoform, or with tags, fused parts or gaps): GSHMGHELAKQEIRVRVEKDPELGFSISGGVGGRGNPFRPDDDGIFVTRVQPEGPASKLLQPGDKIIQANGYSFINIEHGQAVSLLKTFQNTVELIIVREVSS
Inadl_6, Q8NI35, sequence (Q8NI35 1058-1167): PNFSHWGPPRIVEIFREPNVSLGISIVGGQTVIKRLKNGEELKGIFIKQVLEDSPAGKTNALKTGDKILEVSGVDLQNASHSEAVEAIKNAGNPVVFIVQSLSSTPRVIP
GRID2IP_2, A4D2P6, sequence (A4D2P6 272-370): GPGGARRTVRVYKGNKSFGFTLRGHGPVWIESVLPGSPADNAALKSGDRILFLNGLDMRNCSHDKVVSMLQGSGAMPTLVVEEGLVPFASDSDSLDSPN
GRASP, Q7Z6J2, sequence (Q7Z6J2 96-193): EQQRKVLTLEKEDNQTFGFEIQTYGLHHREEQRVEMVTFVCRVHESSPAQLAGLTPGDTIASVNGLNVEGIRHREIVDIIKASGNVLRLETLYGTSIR
FRMPD2_3, Q68DX3, sequence (Q68DX3 1073-1166): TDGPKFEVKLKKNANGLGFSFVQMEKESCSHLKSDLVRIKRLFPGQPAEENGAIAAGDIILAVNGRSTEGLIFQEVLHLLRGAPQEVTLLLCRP

B1: CRHR1, P34998 (peptide)
chain: FHSIKQSTAV
As a reminder, the pKd is the negative decadic logarithm of the Kd, by convention in mol/L. B1: the pKd with LAP2, Q96RT1 is 3.85; with Inadl_6, Q8NI35 it was “below the threshold”; with ARHGEF11, O15085, 5; in the experiment with FRMPD2_3, Q68DX3, “below the threshold”; in the experiment with MPDZ_10, O75970, “below the threshold”; in the experiment with GRID2IP_2, A4D2P6 it was 4.34. Further, the pKd with SNX27, Q96L92 was 4.91; in the experiment with PICK1, Q9NRD5, “below the threshold”; with LIN7C, Q9NUP9, “below the threshold”; with MPDZ_5, O75970, “below the threshold”; in the experiment with TX1BP3, O14907, 4.11; with GRIP1_4, Q9Y3R0, “below the threshold”. Further, the pKd is 5.05 with MAGI1_2, Q96QZ7; 3.75 with SNTB1, Q13884; “below the threshold” with LIN7B, Q9HAP6; 3.7 in the experiment with FRMPD2_2, Q68DX3; “below the threshold” with LNX1_2, Q8TBB1; 4.72 with GRASP, Q7Z6J2. Further, the pKd with PDZD2_2, O15018 is 4.48; with APBA1_1, Q02410, “below the threshold”; with DVL3, Q92997, “below the threshold”; with TIAM2, Q8IVF5, “below the threshold”; with DLG3_2, Q92796 it was 4.61.
